In patent US9657062B2, “Ghrelin analogues” (Zealand Pharma A/S, priority 2012, dated 2017):
*1 amine or outer side, *2 acyl side, *3 side chain or, on linkers, in order; H or OH if unused. [ ]: non-standard residue; d: D form. The star is where a group is joined. Achc(cis-1,4) = O=C([C@H]1CC[C@@H](N[*:1])CC1)[*:2]; Achc(trans-4) = O=C([C@H]1CC[C@H](N[*:1])CC1)[*:2]; Palmitoyl = CCCCCCCCCCCCCCCC(=O)*; 3Amb = NCc1cccc(C(=O)O)c1; Octanoyl = CCCCCCCC(=O)*; Aib = CC(C)(N)C(=O)O; Inp = O=C(O)C1CCNCC1; Octyl = CCCCCCCC*

What follows are binders tested against human growth hormone secretagogue receptor type 1a (human, UniProt Q92847 1-366) (assay: cell-based or functional assay).
Sequence of human growth hormone secretagogue receptor type 1a (Q92847 whole entry): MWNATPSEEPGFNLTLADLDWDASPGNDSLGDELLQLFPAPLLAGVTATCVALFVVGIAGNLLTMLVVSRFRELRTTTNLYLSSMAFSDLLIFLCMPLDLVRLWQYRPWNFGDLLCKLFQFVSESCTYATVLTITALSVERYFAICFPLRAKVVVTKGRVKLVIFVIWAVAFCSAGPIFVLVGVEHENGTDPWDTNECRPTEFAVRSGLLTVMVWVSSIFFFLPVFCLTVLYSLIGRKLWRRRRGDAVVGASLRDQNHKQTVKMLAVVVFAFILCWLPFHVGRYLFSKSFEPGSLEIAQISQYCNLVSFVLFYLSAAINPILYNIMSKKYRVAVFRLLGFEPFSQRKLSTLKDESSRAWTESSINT

Binder	EC50 (nM); Ca2+ induction in HEK293 cells stably expressing the human ghrelin receptor
H-[Achc(cis-1,4)]S(Octanoyl)FLSPEHQRVQQRKESKKPPAKLQPR-OH (SMILES CCCCCCCC(=O)OC[C@H](NC(=O)[C@H]1CC[C@@H](N)CC1)C(=O)N[C@@H](Cc1ccccc1)C(=O)N[C@@H](CC(C)C)C(=O)N[C@@H](CO)C(=O)N1CCC[C@H]1C(=O)N[C@@H](CCC(=O)O)C(=O)N[C@@H](Cc1c[nH]cn1)C(=O)N[C@@H](CCC(N)=O)C(=O)N[C@@H](CCCNC(=N)N)C(=O)N[C@H](C(=O)N[C@@H](CCC(N)=O)C(=O)N[C@@H](CCC(N)=O)C(=O)N[C@@H](CCCNC(=N)N)C(=O)N[C@@H](CCCCN)C(=O)N[C@@H](CCC(=O)O)C(=O)N[C@@H](CO)C(=O)N[C@@H](CCCCN)C(=O)N[C@@H](CCCCN)C(=O)N1CCC[C@H]1C(=O)N1CCC[C@H]1C(=O)N[C@@H](C)C(=O)N[C@@H](CCCCN)C(=O)N[C@@H](CC(C)C)C(=O)N[C@@H](CCC(N)=O)C(=O)N1CCC[C@H]1C(=O)N[C@@H](CCCNC(=N)N)C(=O)O)C(C)C) [H-[cACC]-S(O-octanoyl)-FLSPEHQRVQQRKESKKPPAKLQPR-OH]	0.379 nM
H-PSS(Octyl)FLSPEHQRVQQRKESKKPPAKLQPR-OH [H-PS-S(O-octyl)-FLSPEHQRVQQRKESKKPPAKLQPR-OH]	0.579 nM
XSSFLSPEHQRVQQRKESKKPPAKLQPR (DPro at position 1; Ser(O-octyl) at position 3; K(hexadecanoyl) at position 19; C-terminal -OH) [H-[DPro]-S-S(O-octyl)-FLSPEHQRVQQRKES-K(hexadecanoyl)-KPPAKLQPR-OH]	4.63 nM
H-[3Amb]S(Octanoyl)FLSPEHQRVQQRKESKKPPAKLQPR-OH (SMILES CCCCCCCC(=O)OC[C@H](NC(=O)c1cccc(CN)c1)C(=O)N[C@@H](Cc1ccccc1)C(=O)N[C@@H](CC(C)C)C(=O)N[C@@H](CO)C(=O)N1CCC[C@H]1C(=O)N[C@@H](CCC(=O)O)C(=O)N[C@@H](Cc1c[nH]cn1)C(=O)N[C@@H](CCC(N)=O)C(=O)N[C@@H](CCCNC(=N)N)C(=O)N[C@H](C(=O)N[C@@H](CCC(N)=O)C(=O)N[C@@H](CCC(N)=O)C(=O)N[C@@H](CCCNC(=N)N)C(=O)N[C@@H](CCCCN)C(=O)N[C@@H](CCC(=O)O)C(=O)N[C@@H](CO)C(=O)N[C@@H](CCCCN)C(=O)N[C@@H](CCCCN)C(=O)N1CCC[C@H]1C(=O)N1CCC[C@H]1C(=O)N[C@@H](C)C(=O)N[C@@H](CCCCN)C(=O)N[C@@H](CC(C)C)C(=O)N[C@@H](CCC(N)=O)C(=O)N1CCC[C@H]1C(=O)N[C@@H](CCCNC(=N)N)C(=O)O)C(C)C) [H-Mamb-S(O-octanoyl)-FLSPEHQRVQQRKESKKPPAKLQPR-OH]	1.56 nM
H-PSS(Octyl)FLSPEHQRVQQRKESK(Palmitoyl)KPPAKLQPR-OH (SMILES CCCCCCCCCCCCCCCC(=O)NCCCC[C@H](NC(=O)[C@H](CO)NC(=O)[C@H](CCC(=O)O)NC(=O)[C@H](CCCCN)NC(=O)[C@H](CCCNC(=N)N)NC(=O)[C@H](CCC(N)=O)NC(=O)[C@H](CCC(N)=O)NC(=O)[C@@H](NC(=O)[C@H](CCCNC(=N)N)NC(=O)[C@H](CCC(N)=O)NC(=O)[C@H](Cc1c[nH]cn1)NC(=O)[C@H](CCC(=O)O)NC(=O)[C@@H]1CCCN1C(=O)[C@H](CO)NC(=O)[C@H](CC(C)C)NC(=O)[C@H](Cc1ccccc1)NC(=O)[C@H](COCCCCCCCC)NC(=O)[C@H](CO)NC(=O)[C@@H]1CCCN1)C(C)C)C(=O)N[C@@H](CCCCN)C(=O)N1CCC[C@H]1C(=O)N1CCC[C@H]1C(=O)N[C@@H](C)C(=O)N[C@@H](CCCCN)C(=O)N[C@@H](CC(C)C)C(=O)N[C@@H](CCC(N)=O)C(=O)N1CCC[C@H]1C(=O)N[C@@H](CCCNC(=N)N)C(=O)O) [H-PS-S(O-octyl)-FLSPEHQRVQQRKES-K(hexadecanoyl)-KPPAKLQPR-OH]	2.88 nM

More lines, now with the values ahead:

EC50 (nM); Ca2+ induction in HEK293 cells stably expressing the human ghrelin receptor	Binder
1.89 nM	H-[Achc(trans-4)]S(Octanoyl)FLSPEHQRVQQRKESKKPPAKLQPR-OH (SMILES CCCCCCCC(=O)OC[C@H](NC(=O)[C@H]1CC[C@H](N)CC1)C(=O)N[C@@H](Cc1ccccc1)C(=O)N[C@@H](CC(C)C)C(=O)N[C@@H](CO)C(=O)N1CCC[C@H]1C(=O)N[C@@H](CCC(=O)O)C(=O)N[C@@H](Cc1c[nH]cn1)C(=O)N[C@@H](CCC(N)=O)C(=O)N[C@@H](CCCNC(=N)N)C(=O)N[C@H](C(=O)N[C@@H](CCC(N)=O)C(=O)N[C@@H](CCC(N)=O)C(=O)N[C@@H](CCCNC(=N)N)C(=O)N[C@@H](CCCCN)C(=O)N[C@@H](CCC(=O)O)C(=O)N[C@@H](CO)C(=O)N[C@@H](CCCCN)C(=O)N[C@@H](CCCCN)C(=O)N1CCC[C@H]1C(=O)N1CCC[C@H]1C(=O)N[C@@H](C)C(=O)N[C@@H](CCCCN)C(=O)N[C@@H](CC(C)C)C(=O)N[C@@H](CCC(N)=O)C(=O)N1CCC[C@H]1C(=O)N[C@@H](CCCNC(=N)N)C(=O)O)C(C)C) [H-[tACC]-S(O-octanoyl)-FLSPEHQRVQQRKESKKPPAKLQPR-OH]
2.52 nM	H-[Inp]SS(Octyl)FLSPEHQRVQQRKESK(Palmitoyl)KPPAKLQPR-OH (SMILES CCCCCCCCCCCCCCCC(=O)NCCCC[C@H](NC(=O)[C@H](CO)NC(=O)[C@H](CCC(=O)O)NC(=O)[C@H](CCCCN)NC(=O)[C@H](CCCNC(=N)N)NC(=O)[C@H](CCC(N)=O)NC(=O)[C@H](CCC(N)=O)NC(=O)[C@@H](NC(=O)[C@H](CCCNC(=N)N)NC(=O)[C@H](CCC(N)=O)NC(=O)[C@H](Cc1c[nH]cn1)NC(=O)[C@H](CCC(=O)O)NC(=O)[C@@H]1CCCN1C(=O)[C@H](CO)NC(=O)[C@H](CC(C)C)NC(=O)[C@H](Cc1ccccc1)NC(=O)[C@H](COCCCCCCCC)NC(=O)[C@H](CO)NC(=O)C1CCNCC1)C(C)C)C(=O)N[C@@H](CCCCN)C(=O)N1CCC[C@H]1C(=O)N1CCC[C@H]1C(=O)N[C@@H](C)C(=O)N[C@@H](CCCCN)C(=O)N[C@@H](CC(C)C)C(=O)N[C@@H](CCC(N)=O)C(=O)N1CCC[C@H]1C(=O)N[C@@H](CCCNC(=N)N)C(=O)O) [H-Inp-S-S(O-octyl)-FLSPEHQRVQQRKES-K(hexadecanoyl)-KPPAKLQPR-OH]
2.9 nM	H-[Aib]SS(Octyl)FLSPEHQRVQQRKESK(Palmitoyl)KPPAKLQPR-OH (SMILES CCCCCCCCCCCCCCCC(=O)NCCCC[C@H](NC(=O)[C@H](CO)NC(=O)[C@H](CCC(=O)O)NC(=O)[C@H](CCCCN)NC(=O)[C@H](CCCNC(=N)N)NC(=O)[C@H](CCC(N)=O)NC(=O)[C@H](CCC(N)=O)NC(=O)[C@@H](NC(=O)[C@H](CCCNC(=N)N)NC(=O)[C@H](CCC(N)=O)NC(=O)[C@H](Cc1c[nH]cn1)NC(=O)[C@H](CCC(=O)O)NC(=O)[C@@H]1CCCN1C(=O)[C@H](CO)NC(=O)[C@H](CC(C)C)NC(=O)[C@H](Cc1ccccc1)NC(=O)[C@H](COCCCCCCCC)NC(=O)[C@H](CO)NC(=O)C(C)(C)N)C(C)C)C(=O)N[C@@H](CCCCN)C(=O)N1CCC[C@H]1C(=O)N1CCC[C@H]1C(=O)N[C@@H](C)C(=O)N[C@@H](CCCCN)C(=O)N[C@@H](CC(C)C)C(=O)N[C@@H](CCC(N)=O)C(=O)N1CCC[C@H]1C(=O)N[C@@H](CCCNC(=N)N)C(=O)O) [H-Aib-S-S(O-octyl)-FLSPEHQRVQQRKES-K(hexadecanoyl)-KPPAKLQPR-OH]
1.18 nM	H-[Inp]SS(Octyl)FLSPEHQRVQQRKESKKPPAKLK(Palmitoyl)PR-OH (SMILES CCCCCCCCCCCCCCCC(=O)NCCCC[C@H](NC(=O)[C@H](CC(C)C)NC(=O)[C@H](CCCCN)NC(=O)[C@H](C)NC(=O)[C@@H]1CCCN1C(=O)[C@@H]1CCCN1C(=O)[C@H](CCCCN)NC(=O)[C@H](CCCCN)NC(=O)[C@H](CO)NC(=O)[C@H](CCC(=O)O)NC(=O)[C@H](CCCCN)NC(=O)[C@H](CCCNC(=N)N)NC(=O)[C@H](CCC(N)=O)NC(=O)[C@H](CCC(N)=O)NC(=O)[C@@H](NC(=O)[C@H](CCCNC(=N)N)NC(=O)[C@H](CCC(N)=O)NC(=O)[C@H](Cc1c[nH]cn1)NC(=O)[C@H](CCC(=O)O)NC(=O)[C@@H]1CCCN1C(=O)[C@H](CO)NC(=O)[C@H](CC(C)C)NC(=O)[C@H](Cc1ccccc1)NC(=O)[C@H](COCCCCCCCC)NC(=O)[C@H](CO)NC(=O)C1CCNCC1)C(C)C)C(=O)N1CCC[C@H]1C(=O)N[C@@H](CCCNC(=N)N)C(=O)O) [H-Inp-S-S(O-octyl)-FLSPEHQRVQQRKESKKPPAKL-K(hexadecanoyl)-PR-OH]
2.55 nM	H-[Inp]SS(Octyl)FLSPEHQRVK(Palmitoyl)QRKESKKPPAKLQPR-OH (SMILES CCCCCCCCCCCCCCCC(=O)NCCCC[C@H](NC(=O)[C@@H](NC(=O)[C@H](CCCNC(=N)N)NC(=O)[C@H](CCC(N)=O)NC(=O)[C@H](Cc1c[nH]cn1)NC(=O)[C@H](CCC(=O)O)NC(=O)[C@@H]1CCCN1C(=O)[C@H](CO)NC(=O)[C@H](CC(C)C)NC(=O)[C@H](Cc1ccccc1)NC(=O)[C@H](COCCCCCCCC)NC(=O)[C@H](CO)NC(=O)C1CCNCC1)C(C)C)C(=O)N[C@@H](CCC(N)=O)C(=O)N[C@@H](CCCNC(=N)N)C(=O)N[C@@H](CCCCN)C(=O)N[C@@H](CCC(=O)O)C(=O)N[C@@H](CO)C(=O)N[C@@H](CCCCN)C(=O)N[C@@H](CCCCN)C(=O)N1CCC[C@H]1C(=O)N1CCC[C@H]1C(=O)N[C@@H](C)C(=O)N[C@@H](CCCCN)C(=O)N[C@@H](CC(C)C)C(=O)N[C@@H](CCC(N)=O)C(=O)N1CCC[C@H]1C(=O)N[C@@H](CCCNC(=N)N)C(=O)O) [H-Inp-S-S(O-octyl)-FLSPEHQRV-K(hexadecanoyl)-QRKESKKPPAKLQPR-OH]
0.77 nM	XSSFLSPEHQRVQQRKESKKPPAKLQPR (DPro at position 1; Ser(O-octyl) at position 3; C-terminal -OH) [H-[DPro]-S-S(O-octyl)-FLSPEHQRVQQRKESKKPPAKLQPR-OH]
0.46 nM	H-[Aib]SS(Octyl)FLSPEHQRVQQRKESKKPPAKLQPR-OH (SMILES CCCCCCCCOC[C@H](NC(=O)[C@H](CO)NC(=O)C(C)(C)N)C(=O)N[C@@H](Cc1ccccc1)C(=O)N[C@@H](CC(C)C)C(=O)N[C@@H](CO)C(=O)N1CCC[C@H]1C(=O)N[C@@H](CCC(=O)O)C(=O)N[C@@H](Cc1c[nH]cn1)C(=O)N[C@@H](CCC(N)=O)C(=O)N[C@@H](CCCNC(=N)N)C(=O)N[C@H](C(=O)N[C@@H](CCC(N)=O)C(=O)N[C@@H](CCC(N)=O)C(=O)N[C@@H](CCCNC(=N)N)C(=O)N[C@@H](CCCCN)C(=O)N[C@@H](CCC(=O)O)C(=O)N[C@@H](CO)C(=O)N[C@@H](CCCCN)C(=O)N[C@@H](CCCCN)C(=O)N1CCC[C@H]1C(=O)N1CCC[C@H]1C(=O)N[C@@H](C)C(=O)N[C@@H](CCCCN)C(=O)N[C@@H](CC(C)C)C(=O)N[C@@H](CCC(N)=O)C(=O)N1CCC[C@H]1C(=O)N[C@@H](CCCNC(=N)N)C(=O)O)C(C)C) [H-Aib-S-S(O-octyl)-FLSPEHQRVQQRKESKKPPAKLQPR-OH]
